The source of these data is the supplement of paper PMC9170038.

Data set [1] relates to MS2 coat protein. Nature of the data set: apparent KD of MS2 coat protein, switch ON state; designed switch direction (-1 OFF switch, 1 ON switch): -1; higher = weaker reporter binding. The note with it: FMN input: 0 or 200 uM; Eterna round: R93 (includes R88 designs). The method in brief:
(§1)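 Binding of SNAP-549-labelled MS2 coat protein was measured on designed RNA switches transcribed on-chip from Illumina sequencing clusters. The protein rose in twofold steps from 0.7 or 1.5 nM to 3 µM, with 0.8–1.5 h per step early on and 10–20 min per step later, in 100 mM Tris-HCl pH 7.5, 80 mM KCl, 4 mM MgCl2, without or with constant ligand. Each design's apparent KD is the median of fits to its normalised cluster binding curves.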

Data set [2] has as its system MS2 coat protein. The data set can be described thus: apparent KD of MS2 coat protein, switch OFF state (with FMN for OFF switches, without FMN for ON switches); designed switch direction (-1 OFF switch, 1 ON switch): -1; higher = weaker reporter binding. The note with it: FMN input: 0 or 200 uM; Eterna round: R93 (includes R88 designs). A digest of the protocol:
as §1

In the case of “AAGAAGUAAGGAUAUGCUGCUCGUCACAAAAGUGAUGAGUAGCAGAAGGUACAUGAGGAUCACCCAUGUAAAGA [JL eternac mod 3]”, the “apparent KD of MS2 coat protein” value with MS2 coat protein [1] stood at 26 nM; in the data set with MS2 coat protein [2], 20.3 nM.
“AAGAAGUCAGGAUAUCGAAGACUGUCGAAAAGACAGUCGAACGAGAAGGGACAUGAGGAUCACCCAUGUGGAAG [Mat - Exaclusion 4 - Eli mod - D72]”: the figures for the “apparent KD of MS2 coat protein” value with MS2 coat protein [1] and with MS2 coat protein [2] were 99.2 nM and 321 nM, respectively.
For the sequence “AAGAAGUCAGGAUAUGCCAGAGAUCACGAAAGUGAUGAGUAGCAGAAGGGACAUGAGGAUCACCCAUGUAAAGA [Opal 6]”, the “apparent KD of MS2 coat protein” value in the data set on MS2 coat protein [1] is 48.2 nM; with MS2 coat protein [2], 46.5 nM.
In the case of “AAGAAGUCAGGAUAUGGAAAAGAAAAGAAAAGAAAAGAAAACCAGAAGGGACAUGAGGAUCACCCAUGUAAGAA [Xerxes I the Great]”, the “apparent KD of MS2 coat protein” value in the data set on MS2 coat protein [1] was 44.5 nM; in the data set with MS2 coat protein [2] it was 28.1 nM.
In the same order, the values of “AAGAAGUGAGGAUAUACAUGAGGAUCACCCAUGUAAAAGAAAGAAAGGGAAAAGAAAAGUAGAAGGCGCAAGAA [Aakheperre Shoshenq V]” are 34.1 nM and 44.7 nM.
As for “AAGAAGUGAGGAUAUCGAAGACUGUCGAAAAGACAGUCGAACGAGAAGGCACAUGAGGAUCACCCAUGUAAGAA [Marsupial]”, the “apparent KD of MS2 coat protein” value with MS2 coat protein [1] turned out to be 34.4 nM; in the data set with MS2 coat protein [2], 45 nM.
With “AAGAAGUGAGGAUAUCGAAGACUGUCGAAAAGACAGUCGAACGAGAAGGCACAUGAGGAUCACCCAUGUGAAAA [Marsurpial 65% 4]”, the results for the “apparent KD of MS2 coat protein” value in the data set on MS2 coat protein [1] and in the data set on MS2 coat protein [2] were 22.1 nM and 33.1 nM, respectively.
On to “AAGAAGUUAGGAUAUGCUGCUCGUCACAAAAGUGAUGAGUAGCAGAAGGGACAUGAGGAUCACCCAUGUAAAGA [JL eternac mod 5]”, for which the “apparent KD of MS2 coat protein” value with MS2 coat protein [1] came to 36.7 nM; in the data set with MS2 coat protein [2], 24.1 nM.
Taken in the same sequence, the figures for “AAGAAUCGAGGAUAUACAUGAAAGAAAGAAAAGAAAAGAAAACAUGAGGAUCACCCAUGUAGAAGGCGAUAGAA [EteRNA is fun!]” were 21.3 nM and 28.7 nM.
For “AAGAAUGCAGGAUAUACAAAAUAAAAGAAAAGAAAGAAAGAACAUGAGGAUCACCCAUGUAGAAGGGCGAAGAA [Sewadjkare Hori]”, the “apparent KD of MS2 coat protein” value with MS2 coat protein [1] came to 44.4 nM; in the data set with MS2 coat protein [2], 34.4 nM.
Regarding “AAGAAUGCAGGAUAUACAUGAGGAUCACCCAUGUAAAAGAAAGAAGGGAAAGAGAAAAGUAGAAGGGCAAAGAA [Bakare Tantamani]”, the “apparent KD of MS2 coat protein” value with MS2 coat protein [1] came out at 36 nM; in the data set with MS2 coat protein [2] it was 47.2 nM.
In the case of “AAGAAUGGAGGAUAUACAAAAUAAAAGAAAAGAAAGAAAGAACAUGAGGAUCACCCAUGUAGAAGGCCGAAGAA [Mersekhemre Ined]”, the figures for the “apparent KD of MS2 coat protein” value in the data set with MS2 coat protein [1] and in the data set on MS2 coat protein [2] were 14.6 nM and 37.3 nM, respectively.
Consider “AAGAAUGGAGGAUAUACAUGAGGAUCACCCAUGUAAAAGAAAGAAAGGGAAAAGAAAAGUAGAAGGCCAAAGAA [Hedjkheperre Harsiese]”, for which the “apparent KD of MS2 coat protein” value is 46.6 nM with MS2 coat protein [1] and 42.1 nM in the data set on MS2 coat protein [2].
Take “AAGAAUUGAGGAUAUACAAGGAAGAAAGAAAAGAAAAGAAAACAUGAGGAUCACCCAUGUAGAAGGCAAUAGAA [EteRNA is fun!]”: the “apparent KD of MS2 coat protein” value came out at 23.5 nM with MS2 coat protein [1] and 12.5 nM with MS2 coat protein [2].
For the sequence “AAGACUAGAGGAUAUACAUGAGGAUCACCCAUGUAACUGUCAGAAAACUGACGGAGAAGUAGAAGGCUAGUCAA [Mat - Exclusion 3 - JL mod - D86]”, the “apparent KD of MS2 coat protein” value in the data set with MS2 coat protein [1] came to 16.9 nM; in the data set with MS2 coat protein [2], 21.2 nM.
As to “AAGACUAGAGGAUAUACAUGAGGAUCACCCAUGUAACUGUCAGGUGACUGACGGAGAAGUAGAAGGCUAGUCAA [Mat - Exclusion 3 - JL mod - D83]”, the “apparent KD of MS2 coat protein” value amounted to 14.6 nM in the data set with MS2 coat protein [1] and 19.9 nM with MS2 coat protein [2].
In the same order, the values of “AAGACUAGAGGAUAUACAUGAGGAUCACCCAUGUAACUGUCAGGUGACUGACGGAGAUGUAGAAGGCUAGUCAA [Wider Swing]” are 17.2 nM and 41.2 nM.
Turning to “AAGAGGCGAGGAUAUACAUGAGGAUCACCCAUGUAAUCCGGAUAAGGAAGCAUGUCGUGUAGAAGGUGCCAUGA [water's exclusion 3 last]”, the “apparent KD of MS2 coat protein” value with MS2 coat protein [1] worked out at 19.2 nM; with MS2 coat protein [2], 20.2 nM.
On to “AAGAGUACAGGAUAUACAUGAGGAUCACCCAUGUGAAAAUUAAGUGGCGUACAACAAAGUAGAAGGGUACUGGA [Ruby 51]”, for which the entries for the “apparent KD of MS2 coat protein” value in the data set on MS2 coat protein [1] and with MS2 coat protein [2] were 21.9 nM and 41.7 nM, respectively.
Regarding “AAGAUGUCAGGAUAUGUGUAAAGAAUAAAAGAAAUAACAACACAGAAGGGACAUGAGGAUCACCCAUGUCAACA [May 34]”, the “apparent KD of MS2 coat protein” value with MS2 coat protein [1] amounted to 26.9 nM; in the data set with MS2 coat protein [2], 19.8 nM.
